Assay results: US20120065134A1 (PHYLOGICA, published 2012)
Where no end group is shown, it is not given here. PEG = not defined here

B2: CD40 ligand (CD40L or CD154) (ligand)
chain: MQKGDQNPQIAAHVISEASSKTTSVLQWAEKGYYTMSNNLVTLENGKQLTVKRQGLYYIYAQVTFCSNREASSQAPFIASLCLKSPGRFERILLRAANTHSSAKPCGQQSIHLGGVFELQPGASVFVNVTDPSQVSHGTGFTSFGLLKL
modifications: biotinylated ('biotinylated phospho-CD40L') in the proximity assay as described in paragraph 342
notes: Species never stated; also called soluble CD40L; CD40L target protein

How the values were obtained:
[1] = target: B2; test: cell-based or functional assay
[2] = target: B2; test: Alphascreen proximity assay, inhibition of CD40L-CD40 interaction
[3] = target: B2; test: Alphascreen proximity assay, 0.75nM CD40L; peptide titrated; blocked ligand is CD40 (CD40-Fc on acceptor beads)
[4] = target: B2; test: Alphascreen proximity assay; peptide titrated, axis Phylomer (M); blocked ligand is CD40 (CD40-Fc on acceptor beads)
[5] = target: B2; test: cell-based or functional assay; remark: listed apart in the source
CD40 on primary B-cells = test: cell-based or functional assay
CD40L M8_748 = target: T1, CD40L M8_748; test: BLI, Octet Red (ForteBio), label-free
T1 construct: Base peptide, natural open reading frame

[6] = target: B2; test: BLI, Octet Red (ForteBio), label-free
[7] = target: B2; test: Alphascreen proximity assay, inhibition of CD40L/CD40-Fc interaction, unmodified peptide

B1: Cys_M1_6S (peptide)
peptide: CHPFSIKNVFSIWNFFSVY
modifications: a cysteine-containing linker (8-amino-3,6-dioxaoctanoyl type, FIG. 1b) may stand between Cys and the peptide; not stated for this molecule
notes: also called cysteine-containing derivative of M1-6S
Q: Which “EC50, inhibition of CD40L-induced CD86 expression on primary B-cells” value [1] does the source give for B1 here?
A: Its value is 306 nM.

Q: What about the EC50 [2] of the same binder?
A: Its EC50 is 0.265 nM.

Q: What about the “IC50 (read off the curve)” value [3] of the same binder?
A: The value was about 300 nM.

Q: What about the “IC50 (read off the curve)” value [4] of the same binder?
A: Its value is about 300 nM.

Q: Which “EC50, inhibition of CD40L-induced CD86 expression on primary B-cells (FACS), unmodified peptide” value [5] does the source give for LCEMIAIYVFLWKKVFL [CD40L M7_217] here?
A: Its value is 2500 nM.

Q: B2 was tested. Which “EC50, induction of CD86 expression on primary B-cells by CD40L” value (CD40 on primary B-cells) did it give?
A: The value was about 9 nM.

Q: What about the Kd (CD40L M8_748) of the same binder?
A: Its Kd is 5 nM.

Q: {PEG}-PPRYNLFFLFRFYSSFRRDYLYF (reading uncertain; also: PEG size and spacer not given here) [PEGylated CD40L M1_9s] was tested. Which “EC50, inhibition of CD40L-induced CD86 expression on primary B-cells (FACS), PEGylated peptide” value (“EC50, inhibition … PEGylated peptide” below) [5] did it give?
A: The value was 180 nM.

Q: For {PEG}-DAAGREFFQIAGLFSFRHHWWQA (reading uncertain; also: PEG size and spacer not given here) [PEGylated CD40L M1_30s], which “EC50, inhibition … PEGylated peptide” value [5] is on record?
A: Its value is over 2000 nM.

Q: With {PEG}-PRWVRNRFYSLFVPSGVQRGGIHLWFSNWVR (reading uncertain; also: PEG size and spacer not given here) [PEGylated CD40L M1_50s] as the binder, how does the “EC50, inhibition … PEGylated peptide” value [5] read?
A: Its value is 30 nM.

Q: Which “EC50, inhibition … PEGylated peptide” value [5] does the source give for {PEG}-HSFVLFGVNVPFNIIDFQMRVKS (reading uncertain; also: PEG size and spacer not given here) [PEGylated CD40L M1_42s] here?
A: Its value is 5000 nM.

Q: {PEG}-HPFSIKNVFSIWNFFSVY (reading uncertain; also: PEG size and spacer not given here) [PEGylated CD40L M1_6s] was tested. Which “EC50, inhibition … PEGylated peptide” value [5] did it give?
A: Its value is 1.5 nM.

B3: CD40L M8_747 (peptide)
peptide: LAEHAVWSLKCFPDWEWYNINIFGTDDPNHFWVECDGHGKILFPGYPEGYYENHFLHSFELED
Q: B3 was tested. Which Kd [6] did it give?
A: The Kd was 8 nM.

Q: What about the EC50 [7] of the same binder?
A: Its EC50 is 197 nM.

Q: How did the “EC50, inhibition … PEGylated peptide” value [5] turn out when {PEG}-LPFVPYRSHVLKYGWFFPVQWSIFAVLPFQYLHRSR (reading uncertain; also: PEG size and spacer not given here) [PEGylated CD40L M1_18s] was run?
A: Its value is 90 nM.
